Experimental data taken from PMC6681339, “CoCUN, a Novel Ubiquitin Binding Domain Identified in N4BP1” (Biomolecules, 2019).
No end group written: not given here.

Experiments:
[1] = target: T1, ubiquitin (UniProt P0CG48 1-76, 15N labelled in the complementary NMR experiment; unlabelled otherwise); test: ITC; 3.3 mM ubiquitin titrated to 246 µM N4BP1 (847-896) in the cell; 20 mM Tris-HCl pH 8.0, 150 mM NaCl, 5% glycerol; room temperature; one-site binding model; conditions: both partners purified
T1 construct: the model of the complex used the ubiquitin structure PDB 1D3Z and BMRB 6457; also called monoubiquitin; UBQ

[2] = target: T1, ubiquitin; test: ITC; 2.78 mM N4BP1 (847-896) titrated to 200 µM ubiquitin in the cell; 20 mM Tris-HCl pH 8.0, 150 mM NaCl, 5% glycerol; room temperature; one-site binding model; conditions: both partners purified

Kd [1]: 49.7 ± 3.6 µM
Kd [2]: 61.8 ± 5.2 µM
dH [2]: -3.11 ± 0.0956 kcal/mol
B1: CoCUN domain of N4BP1 (aa 847–896), purified polypeptide (domain or fragment, human, UniProt O75113 847-896, looked up)
chain: AQRSSAETNELREALLKIFPDSEQRLKIDQILVAHPYMKDLNALSAMVLD
modifications: also: 15N isotopic labelling
notes: also called Cousin of CUBAN; N4BP1 UBD; source: bacterial expression (protocol for NMR sample preparation), purified
